This is an account of results in publication PMC12658140 (Nature Communications, 2025).

For assay [1], the target named is T1, H3N2 A/Hong Kong/1/1968 HA protein (Influenza A virus H3N2 A/Hong …, UniProt Q91MA7, strain).
T1 construct: source: bought: SinoBiological
As to the kind of experiment: ELISA. The following applies: both partners purified. On the technique in general: An ELISA detects its analyte on a solid surface through an enzyme-linked reagent.

For assay [2], the target named is H3N2 A/Moscow/10/1999 HA on infected MDCK-SIAT1 cells (Influenza A virus H3N2 A/Moscow/10/1999, UniProt I6SI59, strain). Kind of assay: flow cytometry on cells. The following applies: one partner purified. A general note: Flow cytometry measures light scatter and fluorescence of single cells or particles in a stream.
In assay [3] the target is H14N5 A/mallard/Astrakhan/263/1982 HA protein (Influenza A virus H14N5 …, UniProt P26136, strain). Kind of assay: ELISA. The following applies: both partners purified.

B1: 240-14 IgA 2F02 IgG (antibody, V domains shown)
VH: EVQLLESGGGLVQPGGSLRLSCAASGFTFSTYAMSWVRQAPGKGLEWVSTISGSGGSTYDAESVKGRFTISRDNSKNTLYLQMNSLRAEDTAVYYCAKEGGDFWSGYYANWFDPWGQGTLVTVSS
VL: QSALTQPRSVSGSPGQSVTISCTGTRSDVGGYNYVSWYQQHPGKAPKVIIYDVKKRPSGVPDRFSGSKSGNTASLTISGLQAEDEADYYCSAFAGSHTLFGGGTKVTVL
notes: source: Expi293F, transfected, purified (CaptureSelect CH1-XL beads); copies: 2 + 2
On to B1, for which the binding result in assay [1] and in assay [2] was “binds” throughout.

B2: AG2-G02 IgG (antibody, V domains shown)
VH: VQLVQSGAEMKKPGASVKVSCKASGYTFSAYYIHWVRQAPGQGLEWMGRINTDSGGTNFAQQFEGRVTMTRDTSISTAYMELSSLRSDDTAVYYCARGYDFWLGSYRAGGWFDPWGQGTLVTVSS
VL: not shown
notes: copies: 2 + 2
As to B2, the results for the binding result in assay [3] and in assay [2] were “no binding (tested: 10 μg mL^−1)” and “binds”, respectively.
